Here are results for three compounds from article PMC4388271 (Acta Crystallographica Section D: Biological Crystallography, 2015).

Usually stoichiometry N stands for a count of units in the complex or per binding partner.

Assay [1] addresses TesB acyl-CoA thioesterase from Yersinia pestis (Yersinia pestis). The assay can be described thus: crystal structure.
For assay [2] the target is unchanged. The assay can be described thus: AUC.
The target is the same in assay [3]. The assay can be described thus: SEC. A general note: In gel filtration, larger molecules generally elute earlier.
Assay [4] has the same target. The assay is described as follows: small-angle X-ray scattering (SAXS).
The target in assay [5] is T1, YpTesB (TesB acyl-CoA thioesterase from Y. pestis) (Yersinia pestis, UniProt A0A3N4BCC7). The following applies: 100 mM phosphate pH 8.0, 0.1 mM DTNB.
The target of assay [6] is T1, YpTesB (TesB acyl-CoA thioesterase from Y. pestis). To be noted: 2.2 A; crystals grown with 1 mM octanoyl-CoA, sodium malonate pH 7.0; CoA between two adjacent chains, in two of four sites.

For “TesB acyl-CoA thioesterase from Yersinia pestis (enzyme)”, the stoichiometry N in assay [1], in assay [2], in assay [3] and in assay [4] was 4 in each case.

In the case of `CCCCCCCCCC(=O)SCCNC(=O)CCNC(=O)[C@H](O)C(C)(C)COP(=O)(O)OP(=O)(O)OC[C@H]1O[C@@H](n2cnc3c(N)ncnc32)[C@H](O)[C@@H]1OP(=O)(O)O` [C10, decanoyl-CoA], the “DTNB assay of released thiol, 412 nm” value in assay [5] is listed as “The highest activity was exhibited towards medium-chain acyl-CoAs (C6–C10)”.

Consider `CC(C)(COP(=O)(O)OP(=O)(O)OC[C@H]1O[C@@H](n2cnc3c(N)ncnc32)[C@H](O)[C@@H]1OP(=O)(O)O)[C@@H](O)C(=O)NCCC(=O)NCCS` [CoA], for which the X-ray crystallography entry in assay [6] is “revealing the same quaternary arrangement of domains as the apo form with density for two CoA molecules”.
